Among the data in PMC9117480 are stoichiometry N values, retold here.

In general, stoichiometry N refers to a count of units in the complex or per binding partner.

Experiment [1] deals with GST mutant encoding FSY at position-52 (Schistosoma japonicum (printed only as SjGST)). As to the kind of experiment: cross-linking.
For experiment [2], the target named is GST mutant encoding FPheK at position-52 (Schistosoma japonicum (printed only as SjGST)). As to the kind of experiment: cross-linking.

“GST mutant encoding FSY at position-52 (enzyme)”: the stoichiometry N in experiment [1] came to 2.

In experiment [2], “GST mutant encoding FPheK at position-52 (enzyme)” showed a stoichiometry N of 2.
